Laboratory results reported in patent US20200087373A1 (UNIVERSITY OF COPENHAGEN, published 2020).
Ends that are not written are not given here. * marks the point of attachment. C16 diacid = O=C(O)CCCCCCCCCCCCCCC(=O)*; Palmitoyl = CCCCCCCCCCCCCCCC(=O)*

T1: human GIP receptor (human, UniProt P48546 22-466)
T1 sequence (looked up): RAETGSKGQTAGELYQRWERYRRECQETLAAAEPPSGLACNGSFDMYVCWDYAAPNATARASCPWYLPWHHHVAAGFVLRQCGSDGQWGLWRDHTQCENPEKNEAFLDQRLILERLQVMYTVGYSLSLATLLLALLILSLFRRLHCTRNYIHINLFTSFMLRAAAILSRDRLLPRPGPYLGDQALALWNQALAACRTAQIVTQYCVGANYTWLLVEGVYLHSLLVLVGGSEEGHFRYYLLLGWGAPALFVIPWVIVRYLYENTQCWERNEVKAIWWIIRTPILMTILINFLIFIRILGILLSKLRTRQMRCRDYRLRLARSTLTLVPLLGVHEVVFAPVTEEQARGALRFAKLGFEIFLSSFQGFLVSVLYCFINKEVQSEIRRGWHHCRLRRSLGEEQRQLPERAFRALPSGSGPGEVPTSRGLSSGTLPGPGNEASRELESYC


Molecular target: T1, human GIP receptor
Experiment: cell-based or functional assay

Binder	cAMP agonism, EC50 (log) [log M]	cAMP agonism, Emax [%]	cAMP agonism, nM (EC50) [nM]	cAMP antagonism, log (IC50) [log M]	cAMP antagonism, nM (IC50) [nM]
EGTFISDYSIAMDKIHQQDFVNWLLK(C16 diacid)QK-NH2 (N-terminus assumed; SMILES CC[C@H](C)[C@H](NC(=O)[C@H](CO)NC(=O)[C@H](Cc1ccc(O)cc1)NC(=O)[C@H](CC(=O)O)NC(=O)[C@H](CO)NC(=O)[C@@H](NC(=O)[C@H](Cc1ccccc1)NC(=O)[C@@H](NC(=O)CNC(=O)[C@@H](N)CCC(=O)O)[C@@H](C)O)[C@@H](C)CC)C(=O)N[C@@H](C)C(=O)N[C@@H](CCSC)C(=O)N[C@@H](CC(=O)O)C(=O)N[C@@H](CCCCN)C(=O)N[C@H](C(=O)N[C@@H](Cc1c[nH]cn1)C(=O)N[C@@H](CCC(N)=O)C(=O)N[C@@H](CCC(N)=O)C(=O)N[C@@H](CC(=O)O)C(=O)N[C@@H](Cc1ccccc1)C(=O)N[C@H](C(=O)N[C@@H](CC(N)=O)C(=O)N[C@@H](Cc1c[nH]c2ccccc12)C(=O)N[C@@H](CC(C)C)C(=O)N[C@@H](CC(C)C)C(=O)N[C@@H](CCCCNC(=O)CCCCCCCCCCCCCCC(=O)O)C(=O)N[C@@H](CCC(N)=O)C(=O)N[C@@H](CCCCN)C(N)=O)C(C)C)[C@@H](C)CC) [AT317 [hGIP(3-30)NH2[A28K]-C16diacid/28]]	-7.2	21.8	62	-6.6	228
Palmitoyl-TFISDYSIAMDRIKQQDFVNWLLAQR-NH2 (SMILES CCCCCCCCCCCCCCCC(=O)N[C@H](C(=O)N[C@@H](Cc1ccccc1)C(=O)N[C@H](C(=O)N[C@@H](CO)C(=O)N[C@@H](CC(=O)O)C(=O)N[C@@H](Cc1ccc(O)cc1)C(=O)N[C@@H](CO)C(=O)N[C@H](C(=O)N[C@@H](C)C(=O)N[C@@H](CCSC)C(=O)N[C@@H](CC(=O)O)C(=O)N[C@@H](CCCNC(=N)N)C(=O)N[C@H](C(=O)N[C@@H](CCCCN)C(=O)N[C@@H](CCC(N)=O)C(=O)N[C@@H](CCC(N)=O)C(=O)N[C@@H](CC(=O)O)C(=O)N[C@@H](Cc1ccccc1)C(=O)N[C@H](C(=O)N[C@@H](CC(N)=O)C(=O)N[C@@H](Cc1c[nH]c2ccccc12)C(=O)N[C@@H](CC(C)C)C(=O)N[C@@H](CC(C)C)C(=O)N[C@@H](C)C(=O)N[C@@H](CCC(N)=O)C(=O)N[C@@H](CCCNC(=N)N)C(N)=O)C(C)C)[C@@H](C)CC)[C@@H](C)CC)[C@@H](C)CC)[C@@H](C)O) [AT133 [hGIP(5-30)NH2[K16R; H18K; K30R]-C16/5]]		0		-5.4	3810
TFISDYSIAMDRIK(Palmitoyl)QQDFVNWLLAQR-NH2 (N-terminus assumed; SMILES CCCCCCCCCCCCCCCC(=O)NCCCC[C@H](NC(=O)[C@@H](NC(=O)[C@H](CCCNC(=N)N)NC(=O)[C@H](CC(=O)O)NC(=O)[C@H](CCSC)NC(=O)[C@H](C)NC(=O)[C@@H](NC(=O)[C@H](CO)NC(=O)[C@H](Cc1ccc(O)cc1)NC(=O)[C@H](CC(=O)O)NC(=O)[C@H](CO)NC(=O)[C@@H](NC(=O)[C@H](Cc1ccccc1)NC(=O)[C@@H](N)[C@@H](C)O)[C@@H](C)CC)[C@@H](C)CC)[C@@H](C)CC)C(=O)N[C@@H](CCC(N)=O)C(=O)N[C@@H](CCC(N)=O)C(=O)N[C@@H](CC(=O)O)C(=O)N[C@@H](Cc1ccccc1)C(=O)N[C@H](C(=O)N[C@@H](CC(N)=O)C(=O)N[C@@H](Cc1c[nH]c2ccccc12)C(=O)N[C@@H](CC(C)C)C(=O)N[C@@H](CC(C)C)C(=O)N[C@@H](C)C(=O)N[C@@H](CCC(N)=O)C(=O)N[C@@H](CCCNC(=N)N)C(N)=O)C(C)C) [AT134 [hGIP(5-30)NH2[K16R; H18K; K30R]-16/18]]	-7	11	35	-7	93
TFISDYSIAMDKIK(Palmitoyl)QQDFVNWLLAQK-NH2 (N-terminus assumed; SMILES CCCCCCCCCCCCCCCC(=O)NCCCC[C@H](NC(=O)[C@@H](NC(=O)[C@H](CCCCN)NC(=O)[C@H](CC(=O)O)NC(=O)[C@H](CCSC)NC(=O)[C@H](C)NC(=O)[C@@H](NC(=O)[C@H](CO)NC(=O)[C@H](Cc1ccc(O)cc1)NC(=O)[C@H](CC(=O)O)NC(=O)[C@H](CO)NC(=O)[C@@H](NC(=O)[C@H](Cc1ccccc1)NC(=O)[C@@H](N)[C@@H](C)O)[C@@H](C)CC)[C@@H](C)CC)[C@@H](C)CC)C(=O)N[C@@H](CCC(N)=O)C(=O)N[C@@H](CCC(N)=O)C(=O)N[C@@H](CC(=O)O)C(=O)N[C@@H](Cc1ccccc1)C(=O)N[C@H](C(=O)N[C@@H](CC(N)=O)C(=O)N[C@@H](Cc1c[nH]c2ccccc12)C(=O)N[C@@H](CC(C)C)C(=O)N[C@@H](CC(C)C)C(=O)N[C@@H](C)C(=O)N[C@@H](CCC(N)=O)C(=O)N[C@@H](CCCCN)C(N)=O)C(C)C) [AT145 [hGIP(5-30)NH2[H18K]-C16/18]]	-7	16	33	-7.2	66
EGTFISDYSIAMDKIHQQDFVNWLK(C16 diacid)AQK-NH2 (N-terminus assumed; SMILES CC[C@H](C)[C@H](NC(=O)[C@H](CO)NC(=O)[C@H](Cc1ccc(O)cc1)NC(=O)[C@H](CC(=O)O)NC(=O)[C@H](CO)NC(=O)[C@@H](NC(=O)[C@H](Cc1ccccc1)NC(=O)[C@@H](NC(=O)CNC(=O)[C@@H](N)CCC(=O)O)[C@@H](C)O)[C@@H](C)CC)C(=O)N[C@@H](C)C(=O)N[C@@H](CCSC)C(=O)N[C@@H](CC(=O)O)C(=O)N[C@@H](CCCCN)C(=O)N[C@H](C(=O)N[C@@H](Cc1c[nH]cn1)C(=O)N[C@@H](CCC(N)=O)C(=O)N[C@@H](CCC(N)=O)C(=O)N[C@@H](CC(=O)O)C(=O)N[C@@H](Cc1ccccc1)C(=O)N[C@H](C(=O)N[C@@H](CC(N)=O)C(=O)N[C@@H](Cc1c[nH]c2ccccc12)C(=O)N[C@@H](CC(C)C)C(=O)N[C@@H](CCCCNC(=O)CCCCCCCCCCCCCCC(=O)O)C(=O)N[C@@H](C)C(=O)N[C@@H](CCC(N)=O)C(=O)N[C@@H](CCCCN)C(N)=O)C(C)C)[C@@H](C)CC) [AT316 [hGIP(3-30)NH2[L27K]-C16diacid/27]]	-6.5	6.2	294	-6.2	649
EGTFISDYSIAMDKIHQQDFVNWK(C16 diacid)LAQK-NH2 (N-terminus assumed; SMILES CC[C@H](C)[C@H](NC(=O)[C@H](CO)NC(=O)[C@H](Cc1ccc(O)cc1)NC(=O)[C@H](CC(=O)O)NC(=O)[C@H](CO)NC(=O)[C@@H](NC(=O)[C@H](Cc1ccccc1)NC(=O)[C@@H](NC(=O)CNC(=O)[C@@H](N)CCC(=O)O)[C@@H](C)O)[C@@H](C)CC)C(=O)N[C@@H](C)C(=O)N[C@@H](CCSC)C(=O)N[C@@H](CC(=O)O)C(=O)N[C@@H](CCCCN)C(=O)N[C@H](C(=O)N[C@@H](Cc1c[nH]cn1)C(=O)N[C@@H](CCC(N)=O)C(=O)N[C@@H](CCC(N)=O)C(=O)N[C@@H](CC(=O)O)C(=O)N[C@@H](Cc1ccccc1)C(=O)N[C@H](C(=O)N[C@@H](CC(N)=O)C(=O)N[C@@H](Cc1c[nH]c2ccccc12)C(=O)N[C@@H](CCCCNC(=O)CCCCCCCCCCCCCCC(=O)O)C(=O)N[C@@H](CC(C)C)C(=O)N[C@@H](C)C(=O)N[C@@H](CCC(N)=O)C(=O)N[C@@H](CCCCN)C(N)=O)C(C)C)[C@@H](C)CC) [AT315 [hGIP(3-30)NH2[L26K]-C16diacid/26]]	-6.7	5.9	183	-6.3	556
EGTFISDYSIAMDKIHQQDFVNWLLAK(C16 diacid)K-NH2 (N-terminus assumed; SMILES CC[C@H](C)[C@H](NC(=O)[C@H](CO)NC(=O)[C@H](Cc1ccc(O)cc1)NC(=O)[C@H](CC(=O)O)NC(=O)[C@H](CO)NC(=O)[C@@H](NC(=O)[C@H](Cc1ccccc1)NC(=O)[C@@H](NC(=O)CNC(=O)[C@@H](N)CCC(=O)O)[C@@H](C)O)[C@@H](C)CC)C(=O)N[C@@H](C)C(=O)N[C@@H](CCSC)C(=O)N[C@@H](CC(=O)O)C(=O)N[C@@H](CCCCN)C(=O)N[C@H](C(=O)N[C@@H](Cc1c[nH]cn1)C(=O)N[C@@H](CCC(N)=O)C(=O)N[C@@H](CCC(N)=O)C(=O)N[C@@H](CC(=O)O)C(=O)N[C@@H](Cc1ccccc1)C(=O)N[C@H](C(=O)N[C@@H](CC(N)=O)C(=O)N[C@@H](Cc1c[nH]c2ccccc12)C(=O)N[C@@H](CC(C)C)C(=O)N[C@@H](CC(C)C)C(=O)N[C@@H](C)C(=O)N[C@@H](CCCCNC(=O)CCCCCCCCCCCCCCC(=O)O)C(=O)N[C@@H](CCCCN)C(N)=O)C(C)C)[C@@H](C)CC) [AT318 [hGIP(3-30)NH2[Q29K]-C16diacid/29]]	-6.9	10.8	131	-6.6	224
Palmitoyl-TFISDYSIAMDRIHQQDFVNWLLAQR-NH2 (SMILES CCCCCCCCCCCCCCCC(=O)N[C@H](C(=O)N[C@@H](Cc1ccccc1)C(=O)N[C@H](C(=O)N[C@@H](CO)C(=O)N[C@@H](CC(=O)O)C(=O)N[C@@H](Cc1ccc(O)cc1)C(=O)N[C@@H](CO)C(=O)N[C@H](C(=O)N[C@@H](C)C(=O)N[C@@H](CCSC)C(=O)N[C@@H](CC(=O)O)C(=O)N[C@@H](CCCNC(=N)N)C(=O)N[C@H](C(=O)N[C@@H](Cc1c[nH]cn1)C(=O)N[C@@H](CCC(N)=O)C(=O)N[C@@H](CCC(N)=O)C(=O)N[C@@H](CC(=O)O)C(=O)N[C@@H](Cc1ccccc1)C(=O)N[C@H](C(=O)N[C@@H](CC(N)=O)C(=O)N[C@@H](Cc1c[nH]c2ccccc12)C(=O)N[C@@H](CC(C)C)C(=O)N[C@@H](CC(C)C)C(=O)N[C@@H](C)C(=O)N[C@@H](CCC(N)=O)C(=O)N[C@@H](CCCNC(=N)N)C(N)=O)C(C)C)[C@@H](C)CC)[C@@H](C)CC)[C@@H](C)CC)[C@@H](C)O) [AT135 [hGIP(5-30)NH2[K16R; K30R]-C16/5]]		0			
